PMC4161250

Substrate: O=[N+]([O-])c1ccc(OP(=O)(O)O)cc1
Assay: purified protein
Settings: 2 mM Mn2+, 50 mM Tris-HCl pH 8.0, 37 °C

B1: StpA (Enterococcus faecium DO) (protein)
chain: MQIEYQSDVGRRRNTNQDYASVFTSRSGLKLAVLADGMGGHRAGDIASQMAVTNLGEAWEKQEAVDDEKIAQWFIQSIQEENMLIYQRGQEQPEYNGMGTTIVAAALSDDWFTIANVGDSRAYLIREDKIMQLTEDHSLVNELVKSGEISEEMAVNHPRKNILTRSVGMPGTVEVDVSTHLWQLKDRLLLCSDGLTNMLSEEEIGTIINQEGPLSHKVTELIDRANEAGGADNITVLLIEYKEDSV
  Km: 660 ± 90 µM
  kcat: 1,200 ± 100 min^-1
  kcat/Km: 30000 ± 4830 M⁻¹ s⁻¹
